PMC12661439
Blank lines part the entries; values can stand above or below the substance they belong to.

Assays:
[1] = biological target: HaloTag-AtCRY2(D387A) (Arabidopsis thaliana); assay: photon counting histogram (PCH) analysis (fluorescence fluctuation spectroscopy); dark state; HaloTag fusions labelled with 200 nM JF646 in living HEK293T cells, UBC promoter, protomer about 50-1,700 nM; single-point measurement of 30 s, 20 kHz binning, 15 ns dead time, ambient temperature (22-23°C); brightness relative to the monomeric HaloTag standard and corrected for 70% labelling; population average; oligomer percent from a monomer-dimer (VfAuLOV) or monomer-tetramer (AtCRY2) model
[2] = biological target: HaloTag-AtCRY2(D387A) (Arabidopsis thaliana); assay: photon counting histogram (PCH) analysis (fluorescence fluctuation spectroscopy); light state: the same living HEK293T cells measured at once after 5 min of blue light (about 6 mW/cm^2 at the sample plane, 450-490 nm), one 30 s measurement a cell; HaloTag-JF646 fusions; brightness relative to the monomeric standard, corrected for 70% labelling; oligomer percent from a monomer-dimer (VfAuLOV) or monomer-tetramer (AtCRY2) model
[3] = biological target: HaloTag-AtCRY2(R439L) (Arabidopsis thaliana); assay: photon counting histogram (PCH) analysis (fluorescence fluctuation spectroscopy); dark state; HaloTag fusions labelled with 200 nM JF646 in living HEK293T cells, UBC promoter, protomer about 50-1,700 nM; single-point measurement of 30 s, 20 kHz binning, 15 ns dead time, ambient temperature (22-23°C); brightness relative to the monomeric HaloTag standard and corrected for 70% labelling; population average; oligomer percent from a monomer-dimer (VfAuLOV) or monomer-tetramer (AtCRY2) model
[4] = biological target: HaloTag-AtCRY2(R439L) (Arabidopsis thaliana); assay: photon counting histogram (PCH) analysis (fluorescence fluctuation spectroscopy); light state: the same living HEK293T cells measured at once after 5 min of blue light (about 6 mW/cm^2 at the sample plane, 450-490 nm), one 30 s measurement a cell; HaloTag-JF646 fusions; brightness relative to the monomeric standard, corrected for 70% labelling; oligomer percent from a monomer-dimer (VfAuLOV) or monomer-tetramer (AtCRY2) model
[5] = biological target: HaloTag-AtCRY2(W374A) (Arabidopsis thaliana); assay: photon counting histogram (PCH) analysis (fluorescence fluctuation spectroscopy); dark state; HaloTag fusions labelled with 200 nM JF646 in living HEK293T cells, UBC promoter, protomer about 50-1,700 nM; single-point measurement of 30 s, 20 kHz binning, 15 ns dead time, ambient temperature (22-23°C); brightness relative to the monomeric HaloTag standard and corrected for 70% labelling; population average; oligomer percent from a monomer-dimer (VfAuLOV) or monomer-tetramer (AtCRY2) model
[6] = biological target: HaloTag-AtCRY2(W374A) (Arabidopsis thaliana); assay: photon counting histogram (PCH) analysis (fluorescence fluctuation spectroscopy); light state: the same living HEK293T cells measured at once after 5 min of blue light (about 6 mW/cm^2 at the sample plane, 450-490 nm), one 30 s measurement a cell; HaloTag-JF646 fusions; brightness relative to the monomeric standard, corrected for 70% labelling; oligomer percent from a monomer-dimer (VfAuLOV) or monomer-tetramer (AtCRY2) model
[7] = biological target: HaloTag-AtCRY2: photolyase homology region of cryptochrome 2 from Arabidopsis thaliana fused to HaloTag (Arabidopsis thaliana); assay: photon counting histogram (PCH) analysis (fluorescence fluctuation spectroscopy); dark state; HaloTag fusions labelled with 200 nM JF646 in living HEK293T cells, UBC promoter, protomer about 50-1,700 nM; single-point measurement of 30 s, 20 kHz binning, 15 ns dead time, ambient temperature (22-23°C); brightness relative to the monomeric HaloTag standard and corrected for 70% labelling; population average; oligomer percent from a monomer-dimer (VfAuLOV) or monomer-tetramer (AtCRY2) model
[8] = biological target: HaloTag-AtCRY2: photolyase homology region of cryptochrome 2 from Arabidopsis thaliana fused to HaloTag (Arabidopsis thaliana); assay: photon counting histogram (PCH) analysis (fluorescence fluctuation spectroscopy); light state: the same living HEK293T cells measured at once after 5 min of blue light (about 6 mW/cm^2 at the sample plane, 450-490 nm), one 30 s measurement a cell; HaloTag-JF646 fusions; brightness relative to the monomeric standard, corrected for 70% labelling; oligomer percent from a monomer-dimer (VfAuLOV) or monomer-tetramer (AtCRY2) model
[9] = biological target: HaloTag-AtCRY2: photolyase homology region of cryptochrome 2 from Arabidopsis thaliana fused to HaloTag (Arabidopsis thaliana); assay: photon counting histogram (PCH) analysis (fluorescence fluctuation spectroscopy); dissociation kinetics in living HEK293T cells: relative brightness measured at times after a 5-min exposure to blue light was turned off, each measurement 30 s; averaged curves fitted with a single-exponential decay; half-life = ln2 x lifetime
[10] = biological target: HaloTag-HsCRY2: human CRY2 photolyase homology region fused to HaloTag (human); assay: photon counting histogram (PCH) analysis (fluorescence fluctuation spectroscopy); dark state; HaloTag fusions labelled with 200 nM JF646 in living HEK293T cells, UBC promoter, protomer about 50-1,700 nM; single-point measurement of 30 s, 20 kHz binning, 15 ns dead time, ambient temperature (22-23°C); brightness relative to the monomeric HaloTag standard and corrected for 70% labelling; population average; oligomer percent from a monomer-dimer (VfAuLOV) or monomer-tetramer (AtCRY2) model
[11] = biological target: HaloTag-HsCRY2: human CRY2 photolyase homology region fused to HaloTag (human); assay: photon counting histogram (PCH) analysis (fluorescence fluctuation spectroscopy); light state: the same living HEK293T cells measured at once after 5 min of blue light (about 6 mW/cm^2 at the sample plane, 450-490 nm), one 30 s measurement a cell; HaloTag-JF646 fusions; brightness relative to the monomeric standard, corrected for 70% labelling; oligomer percent from a monomer-dimer (VfAuLOV) or monomer-tetramer (AtCRY2) model
[12] = biological target: HaloTag-VfAuLOV: light-oxygen-voltage (LOV) domain of Vaucheria frigida Aurochrome1 fused to HaloTag (Vaucheria frigida); assay: photon counting histogram (PCH) analysis (fluorescence fluctuation spectroscopy); dark state; HaloTag fusions labelled with 200 nM JF646 in living HEK293T cells, UBC promoter, protomer about 50-1,700 nM; single-point measurement of 30 s, 20 kHz binning, 15 ns dead time, ambient temperature (22-23°C); brightness relative to the monomeric HaloTag standard and corrected for 70% labelling; population average; oligomer percent from a monomer-dimer (VfAuLOV) or monomer-tetramer (AtCRY2) model
[13] = biological target: HaloTag-VfAuLOV: light-oxygen-voltage (LOV) domain of Vaucheria frigida Aurochrome1 fused to HaloTag (Vaucheria frigida); assay: photon counting histogram (PCH) analysis (fluorescence fluctuation spectroscopy); light state: the same living HEK293T cells measured at once after 5 min of blue light (about 6 mW/cm^2 at the sample plane, 450-490 nm), one 30 s measurement a cell; HaloTag-JF646 fusions; brightness relative to the monomeric standard, corrected for 70% labelling; oligomer percent from a monomer-dimer (VfAuLOV) or monomer-tetramer (AtCRY2) model
[14] = biological target: HaloTag-VfAuLOV: light-oxygen-voltage (LOV) domain of Vaucheria frigida Aurochrome1 fused to HaloTag (Vaucheria frigida); assay: photon counting histogram (PCH) analysis (fluorescence fluctuation spectroscopy); dissociation kinetics in living HEK293T cells: relative brightness measured at times after a 5-min exposure to blue light was turned off, each measurement 30 s; averaged curves fitted with a single-exponential decay; half-life = ln2 x lifetime
[15] = biological target: HaloTag-bZip-VfAuLOV: VfAuLOV with the basic residues and leucine zipper domain of Vaucheria frigida Aureochrome1, fused to HaloTag (Vaucheria frigida); assay: photon counting histogram (PCH) analysis (fluorescence fluctuation spectroscopy); dark state; HaloTag fusions labelled with 200 nM JF646 in living HEK293T cells, UBC promoter, protomer about 50-1,700 nM; single-point measurement of 30 s, 20 kHz binning, 15 ns dead time, ambient temperature (22-23°C); brightness relative to the monomeric HaloTag standard and corrected for 70% labelling; population average; oligomer percent from a monomer-dimer (VfAuLOV) or monomer-tetramer (AtCRY2) model
[16] = biological target: HaloTag-bZip-VfAuLOV: VfAuLOV with the basic residues and leucine zipper domain of Vaucheria frigida Aureochrome1, fused to HaloTag (Vaucheria frigida); assay: photon counting histogram (PCH) analysis (fluorescence fluctuation spectroscopy); light state: the same living HEK293T cells measured at once after 5 min of blue light (about 6 mW/cm^2 at the sample plane, 450-490 nm), one 30 s measurement a cell; HaloTag-JF646 fusions; brightness relative to the monomeric standard, corrected for 70% labelling; oligomer percent from a monomer-dimer (VfAuLOV) or monomer-tetramer (AtCRY2) model
[17] = biological target: HaloTag-bZip-VfAuLOV: VfAuLOV with the basic residues and leucine zipper domain of Vaucheria frigida Aureochrome1, fused to HaloTag (Vaucheria frigida); assay: photon counting histogram (PCH) analysis (fluorescence fluctuation spectroscopy); dissociation kinetics in living HEK293T cells: relative brightness measured at times after a 5-min exposure to blue light was turned off, each measurement 30 s; averaged curves fitted with a single-exponential decay; half-life = ln2 x lifetime

Substance: HaloTag-AtCRY2(W374A) (domain or fragment)
oligomer percentage (tetramer fraction, monomer-tetramer model) [5]: 5% | relative brightness (corrected; monomer = 1, tetramer = 4) [5]: 1.5 | oligomer percentage (tetramer fraction, monomer-tetramer model) [6]: 20% | relative brightness (corrected; monomer = 1, tetramer = 4) [6]: 2.5

Substance: HaloTag-AtCRY2: photolyase homology region of cryptochrome 2 from Arabidopsis thaliana fused to HaloTag (domain or fragment)
oligomer percentage (tetramer fraction, monomer-tetramer model) [7]: < 1% | oligomer percentage (tetramer fraction, monomer-tetramer model; only data above 500 nM) [7]: 1.8% | relative brightness (corrected; monomer = 1, tetramer = 4) [7]: 1.1 | relative brightness (corrected; only data above 500 nM) [7]: 1.2 | oligomer percentage (tetramer fraction, monomer-tetramer model) [8]: 27% | relative brightness (corrected; monomer = 1, tetramer = 4) [8]: 2.8 | stoichiometry N [8]: 4 | dissociation half-life [9]: 4.29 min

Substance: HaloTag-VfAuLOV: light-oxygen-voltage (LOV) domain of Vaucheria frigida Aurochrome1 fused to HaloTag (domain or fragment)
oligomer percentage (dimer fraction, monomer-dimer model) [12]: 18% | relative brightness (corrected; monomer = 1, dimer = 2) [12]: 1.3 | oligomer percentage (dimer fraction, monomer-dimer model) [13]: 100% | relative brightness (corrected; monomer = 1, dimer = 2) [13]: 2 | stoichiometry N [13]: 2 | dissociation half-life [14]: 8.73 min

Other lines, results leading:

oligomer percentage (tetramer fraction, monomer-tetramer model) [1]: < 1% | relative brightness (corrected; monomer = 1, tetramer = 4) [1]: 1.1 | oligomer percentage (tetramer fraction, monomer-tetramer model) [2]: < 1% | relative brightness (corrected; monomer = 1, tetramer = 4) [2]: 1.1
Substance: HaloTag-AtCRY2(D387A) (domain or fragment)

oligomer percentage (tetramer fraction, monomer-tetramer model) [3]: < 1% | relative brightness (corrected; monomer = 1, tetramer = 4) [3]: 1.1 | oligomer percentage (tetramer fraction, monomer-tetramer model) [4]: < 1% | relative brightness (corrected; monomer = 1, tetramer = 4) [4]: 1.1
Substance: HaloTag-AtCRY2(R439L) (domain or fragment)

relative brightness (corrected; monomer = 1) [10]: 1.2 | relative brightness (corrected; monomer = 1) [11]: 1.3
Substance: HaloTag-HsCRY2: human CRY2 photolyase homology region fused to HaloTag (domain or fragment)

oligomer percentage (dimer fraction, monomer-dimer model) [15]: 33% | relative brightness (corrected; monomer = 1, dimer = 2) [15]: 1.5 | oligomer percentage (dimer fraction, monomer-dimer model) [16]: 67% | relative brightness (corrected; monomer = 1, dimer = 2) [16]: 1.8 | stoichiometry N [16]: 2 | dissociation half-life [17]: 6.89 min
Substance: HaloTag-bZip-VfAuLOV: VfAuLOV with the basic residues and leucine zipper domain of Vaucheria frigida Aureochrome1, fused to HaloTag (domain or fragment)
